Patent publication US20170073415A1 (NUMAB, published 2017)

Assays:
[1] = biological target: human CD3ε expressed on the cell surface of T cells (Jurkat clone E6-1; human CD8+ T cells) (human) (UniProt P07766); test: cell-based or functional assay
[2] = biological target: human CD3ε expressed on the cell surface of T cells (Jurkat clone E6-1; human CD8+ T cells) (human) (UniProt P07766); test: cell-based or functional assay; remark: listed apart in the source
[3] = biological target: human heterodimeric single-chain CD3εγ extracellular domain (human) (UniProt P07766); test: SPR, human scCD3εγ ECD immobilised, scDb injected
[4] = biological target: T1, human CD3ε expressed on the cell surface of T cells (Jurkat clone E6-1; human CD8+ T cells) (human, UniProt P07766 23-207); test: cell-based or functional assay
[5] = biological target: T1, human CD3ε expressed on the cell …; test: cell-based or functional assay; remark: listed apart in the source

Row | Molecule | Fold increase in CD69 expression [MFI normalized to neg. ctrl.], 1.25 µg/ml anti-CD3 IgG, Jurkat cells, 24 h [4] [fold] | Fold increase in CD69 expression [MFI normalized to neg. ctrl.], 5 µg/ml anti-CD3 IgG, Jurkat cells, 24 h [4] [fold] | Fold increase in CD69 expression [MFI normalized to neg. ctrl.], 20 µg/ml anti-CD3 IgG, Jurkat cells, 24 h [4] [fold] | other results
1 | OKT3 (BioLegend, Cat. No. 317302) (antibody) | – | – | – | Fold increase in CD69 expression [MFI normalized to neg. ctrl.], 1.25 µg/ml anti-CD3 IgG, Jurkat cells, 24 h [1]: 1.8 fold; Fold increase in CD69 expression [MFI normalized to neg. ctrl.], 5 µg/ml anti-CD3 IgG, Jurkat cells, 24 h [1]: 2.5 fold; Fold increase in CD69 expression [MFI normalized to neg. ctrl.], 20 µg/ml anti-CD3 IgG, Jurkat cells, 24 h [1]: 3.1 fold
2 | TR66 (Novus Biologicals, Cat. No. NBP1-97446) (antibody) | – | – | – | Fold increase in CD69 expression [MFI normalized to neg. ctrl.], 1.25 µg/ml anti-CD3 IgG, Jurkat cells, 24 h [1]: 1.6 fold; Fold increase in CD69 expression [MFI normalized to neg. ctrl.], 5 µg/ml anti-CD3 IgG, Jurkat cells, 24 h [1]: 2.2 fold; Fold increase in CD69 expression [MFI normalized to neg. ctrl.], 20 µg/ml anti-CD3 IgG, Jurkat cells, 24 h [1]: 3 fold
3 | Construct 1, bispecific anti-CD3×IL5R single-chain diabody comprising the humanized variable domain of clone-06 (bispecific antibody, part only; not given: anti-IL5R domains and linkers, part only) chain, part: DIQMTQSPSSLSASVGDRVTITCQSSESVYNNKRLSWYQQKPGKAPKLLIYTASSLASGVPSRFSGSGSGTDFTLTISSLQPEDFATYYCQGEFTCSNADCFTFGQGTKLTVLGEVQLVESGGGLVQPGGSLRLSCAASGFPLSSYAMIWVRQAPGKGLEWIGMILRAGNIYYASWVKGRFTISRDNSKNTVYLQMNSLRAEDTAVYYCARRHYNREGYPIGIGDLWGQGTLVTVSS | – | – | – | Potency to lyse target cells [EC50] (CHO-IL5R cells, CD8+ T cells, 88 h) [2]: 0.1 nM; Potency to stimulate IL-2 secretion by T cells [EC50] [2]: 0.96 nM; Kd [3]: 11.5 nM
4 | clone-02 (monoclonal rabbit anti-CD3ε antibody) (antibody, V domains shown) VH: QSLEESGGRLVTPGTPLTLTCTVSGFPLSAYAMIWVRQAPGKGLEWIGMIIRSGTVYYANWAKGRFTISKTSTTVDLKITSPTTEDTATYFCARRHYNADGYPIGIGDLWGPGTLVTVSS VL: AQVLTQTPSSVSAVVGGTVTISCQSSESVYSNNRLSWFQQKPGQPPKLLIYSASTLASGVPSRFKGSGSGTQFTLTITDLECDDAATYFCQGEFSCSSVDCFSFGGGTEVVVKG | 3.3 | 4.6 | 7.4 | –
5 | clone-10 (monoclonal rabbit anti-CD3ε antibody) (antibody, V domains shown) VH: QSLEESGGRLVTPGTPLTLTCTVSGFPLSSFAMLWVRQAPGKGLEWIGMIMRAHNMYYASWAKGRFTISKTSTTVDLEITSPTTEDTATYFCARRHYNTYGYPIAIGDLWGPGTLVTVSS VL: AQVLTQTPSSVSAAVGGTATISCQSNENIYSNNRLSWFQQKAGQPPNQLIYSASSLASGVPSRFKGSGSGTQFTLTISDLECDDAATYYCQGEFSCSSADCFTFGGGTEVVVKG | 2.6 | 4.2 | 6.2 | –
6 | bispecific anti-IL5R×CD3ε single-chain diabody containing Numab's humanized clone 6 anti-CD3 variable domain (Example 9) (bispecific antibody) DIQMTQSPSSLSASVGDRVTITCQASQNIYSNLAWYQQKPGKAPKLLIYRASTLASGVPSRFSGSGSGTDFTLTISSLQPEDFATYYCQSNYGINYYGAAFGQGTKLTVLGGGGGSEVQLVESGGGLVQPGGSLRLSCAASGFPLSSYAMIWVRQAPGKGLEWIGMILRAGNIYYASWVKGRFTISRDNSKNTVYLQMNSLRAEDTAVYYCARRHYNREGYPIGIGDLWGQGTLVTVSSGGGGSGGGGSGGGGSGGGGSDIQMTQSPSSLSASVGDRVTITCQSSESVYNNKRLSWYQQKPGKAPKLLIYTASSLASGVPSRFSGSGSGTDFTLTISSLQPEDFATYYCQGEFTCSNADCFTFGQGTKLTVLGGGGGSEVQLVESGGGLVQPGGSLRLSCAASGFSLSSYDMTWVRQAPGKGLEWIGIIYVSGSAYYASWAKGRFTISRDNSKNTVYLQMNSLRAEDTAVYYCARINYGLDLWGQGTLVTVSS | – | – | – | EC50 of specific lysis of CHO-IL5R target cells by CD8+ T cells at 64 hours [5]: 0.31 nM
7 | clone-06 (monoclonal rabbit anti-CD3ε antibody) (antibody, V domains shown) VH: QSVEESGGRLVTPGTPLTLTCTVSGFPLSSYAMIWVRQAPGKGLEWIGMILRAGNIYYASWVKGRVTISKTSTTVDLKITSPTTEDTATYFCARRHYNREGYPIGIGDLWGPGTLVTVSS VL: AQVLTQTPSSVSAAVGGTVTISCQSSESVYNNKRLSWFQQKPGQPPKQLIYTASSLASGVPSRFKGSGSGTQFTLTISDLECDDAATYYCQGEFTCSNADCFTFGGGTEVVVKG | 2.7 | 5.1 | 5.3 | –
8 | clone-03 (monoclonal rabbit anti-CD3ε antibody) (antibody, V domains shown) VH: QSLEESGGRLVTPGTPLTLTCTVSGFPLNRYAMLWVRQAPGKGLEWIGLITRADKKYYASWAKGRFTISKTSTTVDLEITGPTTEDTATYFCARRHYNTDGYPIAIGDLWGPGTLVTVSS VL: AQVLTQTPSSVSAAVGGTVTISCQSNENIYSNNRLSWFQQKPGQPPNQLIYSASSLASGVPSRFKGSGSGTQFTLTISDLECDDAATYYCQGEFNCNSADCFTFGGGTEVVVKG | 2.6 | 4.6 | 6.6 | –
9 | clone-04 (monoclonal rabbit anti-CD3ε antibody) (antibody, V domains shown) VH: QSLEESGGRLVKPDETLTLTCTVSGFPLSSYAMGWFRQAPGKGLEWIGMILRSDNTYYASWAKGRFTISKTSTTVDLKITSPTTEDTATYFCARRHYNASGNPIAIGDLWGPGTLVTVSS VL: AQVLTQTPSSVSAAVGGTVTINCQSSQSVYNNNRLSWFQQKPGQPPKLLIYTTSSLASGVPSRFKGSGSGTEFTLTISDLECADAATYYCQGEFSCSRADCFNFGGGTEVVVKG | 2.6 | 3.5 | 7.8 | –
